T1: His-tagged human CD19 (human, UniProt P15391 20-291, limits assumed)
T1 construct: not shown: His tag
T1 sequence (looked up): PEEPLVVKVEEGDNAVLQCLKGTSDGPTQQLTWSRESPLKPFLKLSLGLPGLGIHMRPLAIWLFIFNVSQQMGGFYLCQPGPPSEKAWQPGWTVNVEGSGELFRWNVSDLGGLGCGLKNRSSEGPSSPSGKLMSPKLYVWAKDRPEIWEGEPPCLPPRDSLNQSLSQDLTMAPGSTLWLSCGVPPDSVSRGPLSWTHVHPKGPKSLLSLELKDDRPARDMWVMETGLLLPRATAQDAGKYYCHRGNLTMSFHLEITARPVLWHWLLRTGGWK

T2: human CD19 protein (R&D Biosystems Cat #9269-CD-050) (human, UniProt P15391 20-291)
T2 sequence (looked up): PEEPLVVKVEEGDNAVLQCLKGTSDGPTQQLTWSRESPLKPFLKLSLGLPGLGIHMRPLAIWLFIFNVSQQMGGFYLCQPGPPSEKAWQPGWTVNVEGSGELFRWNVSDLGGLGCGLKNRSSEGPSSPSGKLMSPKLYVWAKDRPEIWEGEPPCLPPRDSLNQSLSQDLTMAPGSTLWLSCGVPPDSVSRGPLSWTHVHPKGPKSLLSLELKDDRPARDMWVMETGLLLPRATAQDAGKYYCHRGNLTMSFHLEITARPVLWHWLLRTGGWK


Experiments:
His-tagged human CD19 [1] = target: T1, His-tagged human CD19; assay: BLI (Octet), scFv-His coupled covalently to AR2G sensor, His-tagged human CD19 as analyte
Protocol: To assess the binding affinity of SI-63R1, Octet binding assay was used. The SI-63R1 protein was loaded via covalent coupling onto AR2G sensors at 10 ug/ml and bound to a serial dilution of His-tagged human CD19 (1:2.5 dilutions from the highest concentration of 200 nM).

His-tagged human CD19 [2] = target: T1, His-tagged human CD19; assay: BLI (Octet), scFv-monoFc on AHC sensor, His-tagged human CD19 as analyte, global 1:1 fit
Text: To further screen and compare all humanized peptides, the DNA sequences encoding humanized CD19 binding variants (H1, H2, H3, H4, H5 and H6) were configured to a scFv-monoFc format and cloned (Dimitrov et al. 2012.) (SEQ ID NO. 55,57,59,61,63,65). […] They were given names as SI-63SF1(H1), SI-63SF2(H2), SI-63SF4(H3), SI-63SF5(H4), SI-63SF6(H5), and SI-63SF7(H6). Following the expression and purification processes, all six proteins were characterized for their physical characters, including yields (titer), purity (% HMW and aSEC), binding affinity (KD, Kon, and Kdis) to human CD19, and thermal stability. For Octet assay, the scFv-monoFc fusion proteins were loaded via AHC sensors at 10 ug/ml and bound to a serial dilution of His-tagged human CD19 (1:2.5 dilutions starting from the highest concentration of 200 nM), and the resulting global fit to a 1:1 binding model. For the DLS analysis, the temperature was ramped from 25° C. to 75° C. at 0.5° C./min while the radius of the scFv-monoFc fusion proteins (at 1 mg/ml) was monitored by a Wyatt DynaPro Plate Reader III.

[3] = target: T2, human CD19 protein (R&D Biosystems Cat …); assay: BLI (Octet); human CD19
Protocol: (§1) The purified SI-63C1, SI-63C2, and SI-34C1 antibodies were tested for their binding affinity using biolayer interferometry (ForteBio OctetRED 384). The antibodies were bound to anti-human Fc biosensors, and human CD19 protein (R&D Biosystems Cat #9269-CD-050) was used as the analyte in a 4-point series of 2-fold dilutions with the highest concentration starting at 200 nM.

[4] = target: T2, human CD19 protein (R&D Biosystems Cat …); assay: BLI (Octet), antibody on anti-human Fc biosensor, human CD19 as analyte
Protocol: as §1

Row | Kd (His-tagged human CD19 [2]) [nM] | koff (His-tagged human CD19 [2]) [s⁻¹] | Binder | further results
1 | 4.22 | 0.00181 | SI-63SF2 (H2 scFv-monoFc fusion protein) (Fc fusion, The entry is the whole scFv-monoFc chain; also called Humanized version 2 ScFv monoFc) ENVLTQSPASLSASPGERVTITCSASSSVSYMHWYQQKPGQAPKLWIYDTSKLASGVPSRFSGSGSGNDHTLTISSMEPEDFATYYCFQGSVYPFTFGQGTKITILGGGGSGGGGSGGGGSGGGGSQVTLKESGPGLVQPGQTLRLTCAFSGFSLSTSGMGVGWIRQPPGKGLEWLAHIWWDDDKRYNPALKSRLTISKDTSKNQVYLQMNSLDAEDTAVYYCARMELWSYYFDYWGQGTLVTVSSGGSSGSGSGSTGLVPRGSTSSSGTGTSAGTPVAGPSVFLFPPKPKDTLMISRTPEVTCVVVDVSHEDPEVKFNWYVDGVEVHNAKTKPREEQYASTYRVVSVLTVLHQDWLNGKEYKCKVSNKALPAPIEKTISKAKGQPREPQVYTLPPSRDELTKNQVSLRCHVKGFYPSDIAVEWESNGQPENNYKTTKPVLDSDGSFFLYSTLTVDKSRWQQGNVFSCSVLHEALHNHYTQKSLSLSPGKGSGLNDIFEAQKIEWHE | –
2 | 6.89 | 0.000184 | SI-63SF1 (H1 scFv-monoFc fusion protein) (Fc fusion, The entry is the whole scFv-monoFc chain; also called Humanized version 1 ScFv monoFc) ENVLTQSPASLSASPGERVTITCSASSSVSYMHWYQQKPGQAPKLWIYDTSKLASGVPSRFSGSGSGNDHTLTISSMEPEDFATYYCFQGSVYPFTFGQGTKLEIKGGGGSGGGGSGGGGSGGGGSQVTLKESGPGLVQPGQTLRLTCAFSGFSLSTSGMGVGWIRQPPGKGLEWLAHIWWDDDKRYNPALKSRLTISKDTSKNQVYLQMNSLDAEDTAVYYCARMELWSYYFDYWGQGTLVTVSSGGSSGSGSGSTGLVPRGSTSSSGTGTSAGTPVAGPSVFLFPPKPKDTLMISRTPEVTCVVVDVSHEDPEVKFNWYVDGVEVHNAKTKPREEQYASTYRVVSVLTVLHQDWLNGKEYKCKVSNKALPAPIEKTISKAKGQPREPQVYTLPPSRDELTKNQVSLRCHVKGFYPSDIAVEWESNGQPENNYKTTKPVLDSDGSFFLYSTLTVDKSRWQQGNVFSCSVLHEALHNHYTQKSLSLSPGKGSGLNDIFEAQKIEWHE | –
3 | 5.02 | 0.00187 | SI-63SF5 (H4 scFv-monoFc fusion protein) (Fc fusion, The entry is the whole scFv-monoFc chain; also called Humanized version 4 ScFv monoFc) ENVLTQSPASLSASPGERVTITCSASSSVSYMHWYQQKPGQAPKLWIYDTSKLASGVPSRFSGSGSGNDHTLTISSMEPEDFATYYCFQGSVYPFTFGQGTKVTVLGGGGSGGGGSGGGGSGGGGSQVTLKESGPGLVQPGQTLRLTCAFSGFSLSTSGMGVGWIRQPPGKGLEWLAHIWWDDDKRYNPALKSRLTISKDTSKNQVYLQMNSLDAEDTAVYYCARMELWSYYFDYWGQGTLVTVSSGGSSGSGSGSTGLVPRGSTSSSGTGTSAGTPVAGPSVFLFPPKPKDTLMISRTPEVTCVVVDVSHEDPEVKFNWYVDGVEVHNAKTKPREEQYASTYRVVSVLTVLHQDWLNGKEYKCKVSNKALPAPIEKTISKAKGQPREPQVYTLPPSRDELTKNQVSLRCHVKGFYPSDIAVEWESNGQPENNYKTTKPVLDSDGSFFLYSTLTVDKSRWQQGNVFSCSVLHEALHNHYTQKSLSLSPGKGSGLNDIFEAQKIEWHE | –
4 | 5.37 | 0.000377 | SI-63SF7 (H6 scFv-monoFc fusion protein) (Fc fusion, The entry is the whole scFv-monoFc chain; also called Humanized version 6 ScFv mono Fc) EIVMTQSPSTLSASVGDRVIITCSASSSVSYMHWYQQKPGKAPKLLIYDTSKLASGVPSRFSGSGSGAEFTLTISSLQPDDFATYYCFQGSVYPFTFGQGTKLTVLGGGGSGGGGSGGGGSGGGGSEVQLVESGGGLVQPGGSLRLSCSFSGFSLSTSGMGVGWVRQAPGKGLEWVGHIWWDDDKRYNPALKSRFTISRDTSKNTVYLQMNSLRAEDTAVYYCARMELWSYYFDYWGQGTLVTVSSGSSGSGSGSTGLVPRGSTSSSGTGTSAGTPVAGPSVFLFPPKPKDTLMISRTPEVTCVVVDVSHEDPEVKFNWYVDGVEVHNAKTKPREEQYASTYRVVSVLTVLHQDWLNGKEYKCKVSNKALPAPIEKTISKAKGQPREPQVYTLPPSRDELTKNQVSLRCHVKGFYPSDIAVEWESNGQPENNYKTTKPVLDSDGSFFLYSTLTVDKSRWQQGNVFSCSVLHEALHNHYTQKSLSLSPGKGSGLNDIFEAQKIEWHE | kon (His-tagged human CD19 [2]): 70200 M⁻¹ s⁻¹

The remaining lines, values behind:

Row | Binder | Kd (His-tagged human CD19 [2]) [nM] | koff (His-tagged human CD19 [2]) [s⁻¹] | further results
5 | SI-63R1 (humanized anti-CD19 H1 scFv-His-tagged protein) (scFv, also called SI-63R1(H1)) scFv: ENVLTQSPASLSASPGERVTITCSASSSVSYMHWYQQKPGQAPKLWIYDTSKLASGVPSRFSGSGSGNDHTLTISSMEPEDFATYYCFQGSVYPFTFGQGTKLEIKGGGGSGGGGSGGGGSGGGGSQVTLKESGPGLVQPGQTLRLTCAFSGFSLSTSGMGVGWIRQPPGKGLEWLAHIWWDDDKRYNPALKSRLTISKDTSKNQVYLQMNSLDAEDTAVYYCARMELWSYYFDYWGQGTLVTVSSGSHHHHHH | – | – | Kd (His-tagged human CD19 [1]): 1.83 nM; koff (His-tagged human CD19 [1]): 9.15e-05 s⁻¹
6 | SI-63SF4 (H3 scFv-monoFc fusion protein) (Fc fusion, The entry is the whole scFv-monoFc chain; also called Humanized version 3 ScFv monoFc) ENVLTQSPASLSASPGERVTITCSASSSVSYMHWYQQKPGQAPKLWIYDTSKLASGVPSRFSGSGSGNDHTLTISSMEPEDFATYYCFQGSVYPFTFGQGTKLTVLGGGGSGGGGSGGGGSGGGGSQVTLKESGPGLVQPGQTLRLTCAFSGFSLSTSGMGVGWIRQPPGKGLEWLAHIWWDDDKRYNPALKSRLTISKDTSKNQVYLQMNSLDAEDTAVYYCARMELWSYYFDYWGQGTLVTVSSGGSSGSGSGSTGLVPRGSTSSSGTGTSAGTPVAGPSVFLFPPKPKDTLMISRTPEVTCVVVDVSHEDPEVKFNWYVDGVEVHNAKTKPREEQYASTYRVVSVLTVLHQDWLNGKEYKCKVSNKALPAPIEKTISKAKGQPREPQVYTLPPSRDELTKNQVSLRCHVKGFYPSDIAVEWESNGQPENNYKTTKPVLDSDGSFFLYSTLTVDKSRWQQGNVFSCSVLHEALHNHYTQKSLSLSPGKGSGLNDIFEAQKIEWHE | 4.18 | 0.00191 | –
7 | SI-34C1 (recombinant mAb with 21D4 human anti-CD19 variable sequence) (antibody, human IgG1, kappa, V domains shown, also called human anti-CD19 antibody (21D4)) VH: EVQLVQSGAEVKKPGESLKISCKGSGYSFSSSWIGWVRQAPGKGLEWMGIIYPDDSDTRYSPSFQGQVTISADKSIRTAYLQWSSLKASDTAMYYCARHVTMIWGVIIDFWGQGTLVTVSS VL: AIQLTQSPSSLSASVGDRVTITCRASQGISSALAWYQQKPGKAPKLLIYDASSLESGVPSRFSGSGSGTDFTLTISSLQPEDFATYYCQQFNSYPFTFGPGTKVDIKR | – | – | Kd [3]: 2.1 nM; Kd [4]: 1.56 nM; koff [4]: 0.000101 s⁻¹; kon [4]: 64400 M⁻¹ s⁻¹
8 | SI-63SF6 (H5 scFv-monoFc fusion protein) (Fc fusion, The entry is the whole scFv-monoFc chain; also called Humanized version 5 ScFv monoFc) EIVMTQSPSTLSASVGDRVIITCSASSSVSYMHWYQQKPGKAPKLLIYDTSKLASGVPSRFSGSGSGAEFTLTISSLQPDDFATYYCFQGSVYPFTFGQGTKLTVLGGGGSGGGGSGGGGSGGGGSEVQLVESGGGLVQPGGSLRLSCVFSGFSLSTSGMGVGWVRQAPGKGLEWVGHIWWDDDKRYNPALKSRFTISRDTSKNTVYLQMNSLRAEDTAVYYCARMELWSYYFDYWGQGTLVTVSSGSSGSGSGSTGLVPRGSTSSSGTGTSAGTPVAGPSVFLFPPKPKDTLMISRTPEVTCVVVDVSHEDPEVKFNWYVDGVEVHNAKTKPREEQYASTYRVVSVLTVLHQDWLNGKEYKCKVSNKALPAPIEKTISKAKGQPREPQVYTLPPSRDELTKNQVSLRCHVKGFYPSDIAVEWESNGQPENNYKTTKPVLDSDGSFFLYSTLTVDKSRWQQGNVFSCSVLHEALHNHYTQKSLSLSPGKGSGLNDIFEAQKIEWHE | 5.68 | 0.000339 | kon (His-tagged human CD19 [2]): 59700 M⁻¹ s⁻¹

Source: US20230086069A1 (SYSTIMMUNE, published 2023)
